These substances were tested against HLA-B*07:02 (Homo sapiens, UniProt P01889) (assay: MHC binding assay (UV-ligand exchange, beta2m ELISA)). Settings: peptide exchange yield.
Excerpt: Candidate peptides for T cell based therapies according to the present invention were further tested for their MHC binding capacity (affinity). The individual peptide-MHC complexes were produced by UV-ligand exchange, where a UV-sensitive peptide is cleaved upon UV-irradiation, and exchanged with the peptide of interest as analyzed. Only peptide candidates that can effectively bind and stabilize the peptide-receptive MHC molecules prevent dissociation of the MHC complexes. To determine the yield of the exchange reaction, an ELISA was performed based on the detection of the light chain (β2m) of stabilized MHC complexes. The assay was performed as generally described in Rodenko et al. (Rodenko et al., 2006).
96 well MAXISorp plates (NUNC) were coated over night with 2 ug/ml streptavidin in PBS at room temperature, washed 4× and blocked for 1 h at 37° C. in 2% BSA containing blocking buffer. Refolded HLA-A*02:01/MLA-001 monomers served as standards, covering the range of 15-500 ng/ml. Peptide-MHC monomers of the UV-exchange reaction were diluted 100-fold in blocking buffer. Samples were incubated for 1 h at 37° C., washed four times, incubated with 2 ug/ml HRP conjugated anti-β2m for 1h at 37° C., washed again and detected with TMB solution that is stopped with […]. Absorption was measured at 450 nm. Candidate peptides that show a high exchange yield (preferably higher than 50%, most preferred higher than 75%) are generally preferred for a generation and production of antibodies or fragments thereof, and/or T cell receptors or fragments thereof, as they show sufficient avidity to the MHC molecules and prevent dissociation of the MHC complexes.

| Substance | Peptide exchange |
| --- | --- |
| 356 (SPNEFYFTV; listed as Homo sapiens) [compound 356] | “+++” (>50 = +++) |
| 312 (LPYFREFSM; listed as Homo sapiens) [compound 312] | “+++” (>50 = +++) |
| 365 (TPLATTQRFTY; listed as Homo sapiens) [compound 365] | “++” (>20% = ++) |
| 138 (SPMATTSTL; listed as Homo sapiens) [compound 138] | “+++” (>50 = +++) |
| 363 (TAKTPDATF; listed as Homo sapiens) [compound 363] | “++” (>20% = ++) |
| 140 (SPRTEASSAVL; listed as Homo sapiens) [compound 140] | “+++” (>50 = +++) |
| 318 (FPNRLNLEA; listed as Homo sapiens) [compound 318] | “+++” (>50 = +++) |
| 383 (TPTKETVSL; listed as Homo sapiens) [compound 383] | “+++” (>50 = +++) |
| 376 (RPRSPAGQVA; listed as Homo sapiens) [compound 376] | “+++” (>50 = +++) |
| 121 (VPNQSSESL; listed as Homo sapiens) [compound 121] | “+++” (>50 = +++) |
| 385 (SPALHIGSV; listed as Homo sapiens) [compound 385] | “+++” (>50 = +++) |
| 120 (RPAMNYDKL; listed as Homo sapiens) [compound 120] | “++” (>20% = ++) |
| 118 (SPASRSISL; listed as Homo sapiens) [compound 118] | “+++” (>50 = +++) |
| 351 (NVLTSTPAF; listed as Homo sapiens) [compound 351] | “++” (>20% = ++) |
| 41 (RVRSRISNL; listed as Homo sapiens) [compound 41] | “+++” (>50 = +++) |
| 297 (TVREASGLL; listed as Homo sapiens) [compound 297] | “+++” (>50 = +++) |
| 379 (GPFPLVYVL; listed as Homo sapiens) [compound 379] | “+++” (>50 = +++) |
| 331 (FPHPEMTTSM; listed as Homo sapiens) [compound 331] | “+++” (>50 = +++) |
| 293 (VPDSGATATAY; listed as Homo sapiens) [compound 293] | “++” (>20% = ++) |
| 40 (KPGTSYRVTL; listed as Homo sapiens) [compound 40] | “+++” (>50 = +++) |
| 305 (TPWAESSTKF; listed as Homo sapiens) [compound 305] | “++” (>20% = ++) |
| 389 (SPGAQRTFFQL; listed as Homo sapiens) [compound 389] | “+++” (>50 = +++) |
| 338 (HVTKTQATF; listed as Homo sapiens) [compound 338] | “++” (>20% = ++) |
| 324 (VPYRVVGL; listed as Homo sapiens) [compound 324] | “++” (>20% = ++) |
| 348 (MPNSAIPFSM; listed as Homo sapiens) [compound 348] | “+++” (>50 = +++) |

| Substance | Peptide exchange |
| --- | --- |
| 382 (SPMHDRWTF; listed as Homo sapiens) [compound 382] | “+++” (>50 = +++) |
| 306 (APVIFSHSA; listed as Homo sapiens) [compound 306] | “++” (>20% = ++) |
| 142 (TPGLRETSI; listed as Homo sapiens) [compound 142] | “++” (>20% = ++) |
| 35 (FPDNQRPAL; listed as Homo sapiens) [compound 35] | “+++” (>50 = +++) |
| 346 (LPWDTSTTLF; listed as Homo sapiens) [compound 346] | “+++” (>50 = +++) |
| 314 (VPDQPHPEI; listed as Homo sapiens) [compound 314] | “+++” (>50 = +++) |
| 319 (SPAEPSVYATL; listed as Homo sapiens) [compound 319] | “++++” (>75% = ++++) |
| 315 (SPRENFPDTL; listed as Homo sapiens) [compound 315] | “+++” (>50 = +++) |
| 309 (FPQSQYPQY; listed as Homo sapiens) [compound 309] | “++++” (>75% = ++++) |
| 317 (FPFQPGSV; listed as Homo sapiens) [compound 317] | “+++” (>50 = +++) |
| 358 (SPSPVTSTL; listed as Homo sapiens) [compound 358] | “+++” (>50 = +++) |
| 381 (LPEQTPLAF; listed as Homo sapiens) [compound 381] | “++” (>20% = ++) |
| 325 (GPRNAQRVL; listed as Homo sapiens) [compound 325] | “+++” (>50 = +++) |
| 320 (FPMSPVTSV; listed as Homo sapiens) [compound 320] | “+++” (>50 = +++) |
| 137 (SPGATSRGTL; listed as Homo sapiens) [compound 137] | “+++” (>50 = +++) |
| 323 (RPMPNLRSV; listed as Homo sapiens) [compound 323] | “+++” (>50 = +++) |
| 36 (APAAWLRSA; listed as Homo sapiens) [compound 36] | “++” (>20% = ++) |
| 130 (FPRLVGPDF; listed as Homo sapiens) [compound 130] | “+++” (>50 = +++) |
| 341 (LPLDTSTTL; listed as Homo sapiens) [compound 341] | “+++” (>50 = +++) |
| 378 (RPRSPAGQVAA; listed as Homo sapiens) [compound 378] | “+++” (>50 = +++) |
| 313 (KVKSDRSVF; listed as Homo sapiens) [compound 313] | “+” (>10% = +) |
| 380 (IPTYGRTF; listed as Homo sapiens) [compound 380] | “+++” (>50 = +++) |
| 336 (HPKTESATPAAY; listed as Homo sapiens) [compound 336] | “++” (>20% = ++) |
| 125 (VPVYILLDEM; listed as Homo sapiens) [compound 125] | “++” (>20% = ++) |
| 332 (FPHSEMTTL; listed as Homo sapiens) [compound 332] | “+++” (>50 = +++) |

| Substance | Peptide exchange |
| --- | --- |
| 38 (SPHPVTALLTL; listed as Homo sapiens) [compound 38] | “+++” (>50 = +++) |
| 298 (YPTEHVQF; listed as Homo sapiens) [compound 298] | “++” (>20% = ++) |
| 368 (VPTPVFPTM; listed as Homo sapiens) [compound 368] | “++” (>20% = ++) |
| 360 (SPSVSSNTY; listed as Homo sapiens) [compound 360] | “++” (>20% = ++) |
| 388 (SPAPLKLSRTPA; listed as Homo sapiens) [compound 388] | “++” (>20% = ++) |
| 369 (FPHSEMTTV; listed as Homo sapiens) [compound 369] | “+++” (>50 = +++) |
| 119 (APLPRPGAVL; listed as Homo sapiens) [compound 119] | “+++” (>50 = +++) |
| 328 (EPVTSSLPNF; listed as Homo sapiens) [compound 328] | “++” (>20% = ++) |
| 367 (TPSVVTEGF; listed as Homo sapiens) [compound 367] | “++” (>20% = ++) |
| 391 (APSTPRITTF; listed as Homo sapiens) [compound 391] | “+++” (>50 = +++) |
| 374 (NPIGDTGVKF; listed as Homo sapiens) [compound 374] | “+++” (>50 = +++) |
| 334 (FPYSEVTTL; listed as Homo sapiens) [compound 334] | “+++” (>50 = +++) |
| 384 (YPGLRGSPM; listed as Homo sapiens) [compound 384] | “++++” (>75% = ++++) |
| 147 (APRWFPQPTVV; listed as Homo sapiens) [compound 147] | “+++” (>50 = +++) |
| 39 (RPAPFEVVF; listed as Homo sapiens) [compound 39] | “+++” (>50 = +++) |
| 307 (LPYGPGSEAAAF; listed as Homo sapiens) [compound 307] | “+++” (>50 = +++) |
| 122 (YPGFPQSQY; listed as Homo sapiens) [compound 122] | “++” (>20% = ++) |
| 386 (FPFNPLDF; listed as Homo sapiens) [compound 386] | “++” (>20% = ++) |
| 149 (GPREALSRL; listed as Homo sapiens) [compound 149] | “+++” (>50 = +++) |
| 134 (RPIVPGPLL; listed as Homo sapiens) [compound 134] | “+++” (>50 = +++) |
| 350 (NPSSTTTEF; listed as Homo sapiens) [compound 350] | “+++” (>50 = +++) |
| 34 (LPRGPLASLL; listed as Homo sapiens) [compound 34] | “+++” (>50 = +++) |
| 308 (YPEGAAYEF; listed as Homo sapiens) [compound 308] | “++” (>20% = ++) |

Source: patent publication US20210340217A1, “NOVEL PEPTIDES AND COMBINATION OF PEPTIDES FOR USE IN IMMUNOTHERAPY AGAINST OVARIAN CANCER AND OTHER CANCERS” (Immatics Biotechnologies GmbH, priority 2017, published 2021)
